From FireProtDB (doi:10.1002/pro.5560070228)
Several values for one entry are separate records, joined by “and”; a condition that tells them apart may be missing. Identical values can stand only once.

Conditions: Escherichia coli (strain K12), pH 7, Potassium phosphate 50 mM, KCl 100 mM, reversible: yes

Cold shock protein CspA wild type, P0A9X9, sequence (P0A9X9 whole entry): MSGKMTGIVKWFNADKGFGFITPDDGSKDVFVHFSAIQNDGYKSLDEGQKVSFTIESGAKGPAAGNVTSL

Cold shock protein CspA wild type, P0A9X9
denaturant m value (10 °C, GdnHCl, Fluorescence): 1.7 kcal/mol/M and 2.4 kcal/mol/M and 2.1 kcal/mol/M | denaturant midpoint (higher = more stable) (10 °C, GdnHCl, Fluorescence): 1.8 M and 1.6 M | unfolding free energy (10 °C, GdnHCl, Fluorescence): 3.1 kcal/mol and 3.8 kcal/mol and 3.3 kcal/mol | denaturant m value (10 °C, Urea, Fluorescence): 0.59 kcal/mol/M and 0.66 kcal/mol/M and 0.64 kcal/mol/M | denaturant midpoint (higher = more stable) (10 °C, Urea, Fluorescence): 4.9 M and 5 M and 4.5 M | unfolding free energy (10 °C, Urea, Fluorescence): 2.9 kcal/mol and 3.3 kcal/mol and 2.8 kcal/mol | denaturant m value (25 °C, GdnHCl, CD): 1.7 kcal/mol/M and 2.9 kcal/mol/M and 2.1 kcal/mol/M | denaturant midpoint (higher = more stable) (25 °C, GdnHCl, CD): 1.5 M and 1.3 M and 1.6 M | unfolding free energy (25 °C, GdnHCl, CD): 2.4 kcal/mol and 3.7 kcal/mol and 3.3 kcal/mol | denaturant m value (25 °C, GdnHCl, Fluorescence): 2.2 kcal/mol/M and 2 kcal/mol/M | denaturant midpoint (higher = more stable) (25 °C, GdnHCl, Fluorescence): 1.4 M and 1.6 M | unfolding free energy (25 °C, GdnHCl, Fluorescence): 3.1 kcal/mol and 3.2 kcal/mol and 3 kcal/mol | denaturant m value (25 °C, Urea, CD): 0.6 kcal/mol/M and 0.7 kcal/mol/M | denaturant midpoint (higher = more stable) (25 °C, Urea, CD): 4 M and 4.5 M and 4.1 M | unfolding free energy (25 °C, Urea, CD): 2.6 kcal/mol and 3.1 kcal/mol | denaturant m value (25 °C, Urea, Fluorescence): 0.71 kcal/mol/M and 0.69 kcal/mol/M and 0.78 kcal/mol/M | denaturant midpoint (higher = more stable) (25 °C, Urea, Fluorescence): 4.2 M | unfolding free energy (25 °C, Urea, Fluorescence): 3 kcal/mol and 2.9 kcal/mol and 3.2 kcal/mol
